# Results as given in PMC4176161 (Nucleic Acids Research, 2014).
# B1: …2 (SEP2) (natural protein)
# chain: not shown
# B2: …4 (SEP4) (natural protein)
# chain: MGRGKVELKRIENKINRQVTFAKRRNGLLKKAYELSVLCDAEIALLIFSNRGKLYEFCSSPSGMARTVDKYRKHSYATMDPNQSAKDLQDKYQDYLKLKSRVEILQHSQRHLLGEELSEMDVNELEHLERQVDASLRQIRSTKARSMLDQLSDLKTKEEMLLETNRDLRRKLEDSDAALTQSFWGSSAAEQQQQHQQQQQGMSSYQSNPPIQEAGFFKPLQGNVALQMSSHYNHNPANATNSATTSQNVNGFFPGWMV
# B3: …1 (SEP1) (natural protein)
# chain: MGRGRVELKRIENKINRQVTFAKRRNGLLKKAYELSVLCDAEVALIIFSNRGKLYEFCSSSNMLKTLDRYQKCSYGSIEVNNKPAKELENSYREYLKLKGRYENLQRQQRNLLGEDLGPLNSKELEQLERQLDGSLKQVRSIKTQYMLDQLSDLQNKEQMLLETNRALAMKLDDMIGVRSHHMGGGGGWEGGEQNVTYAHHQAQSQGLYQPLECNPTLQMGYDNPVCSEQITATTQAQAQQGNGYIPGWML
# Target: the molecule itself
# Experiment: native gel or EMSA
row,Protein,stoichiometry N
1,B1,4
2,B2,4
3,B3,4

# Target: the molecule itself
# Experiment: native gel or EMSA
# Remark: another data set of the same source
row,Protein,stoichiometry N
1,B1,2
2,B2,2
3,B3,2
